Laboratory results as given in the supplement of paper PMC10065799, “High-throughput profiling of sequence recognition by tyrosine kinases and SH2 domains using bacterial peptide display” (eLife, 2023).

Legend:
AncSZ = test: phosphorylation enrichment, bacterial display (enrichment ratio); higher = better substrate or ligand; peptides without Tyr show the background
EPHB1 = EPHB1 (UniProt P54762); test: as above
EPHB2 = EPHB2 (UniProt P29323); test: as above
FGFR1 = FGFR1 (UniProt P11362); test: as above
FGFR3 = FGFR3 (UniProt P22607); test: as above
Fer (mouse) = test: as above
Fes = Fes (UniProt P07332); test: as above
Fyn = Fyn (UniProt P06241); test: as above
Sequence of Fyn (P06241 whole entry, looked up): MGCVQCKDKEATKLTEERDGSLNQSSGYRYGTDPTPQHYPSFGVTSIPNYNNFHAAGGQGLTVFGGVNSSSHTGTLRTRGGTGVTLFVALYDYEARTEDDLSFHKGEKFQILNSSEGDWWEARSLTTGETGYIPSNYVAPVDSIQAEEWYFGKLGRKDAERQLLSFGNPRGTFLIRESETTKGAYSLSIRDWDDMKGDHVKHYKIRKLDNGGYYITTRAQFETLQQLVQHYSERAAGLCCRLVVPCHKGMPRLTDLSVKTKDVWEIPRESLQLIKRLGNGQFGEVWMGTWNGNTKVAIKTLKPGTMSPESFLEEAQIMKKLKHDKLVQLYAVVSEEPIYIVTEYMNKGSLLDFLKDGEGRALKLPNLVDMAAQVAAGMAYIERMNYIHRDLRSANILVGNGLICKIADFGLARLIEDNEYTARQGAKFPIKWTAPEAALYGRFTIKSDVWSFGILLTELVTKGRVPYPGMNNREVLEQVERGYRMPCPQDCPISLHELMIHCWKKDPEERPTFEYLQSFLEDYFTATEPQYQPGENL

Hck = Hck (UniProt P08631); test: as above
Jak2 = Jak2 (UniProt O60674); test: as above
Sequence of Jak2 (O60674 whole entry, looked up): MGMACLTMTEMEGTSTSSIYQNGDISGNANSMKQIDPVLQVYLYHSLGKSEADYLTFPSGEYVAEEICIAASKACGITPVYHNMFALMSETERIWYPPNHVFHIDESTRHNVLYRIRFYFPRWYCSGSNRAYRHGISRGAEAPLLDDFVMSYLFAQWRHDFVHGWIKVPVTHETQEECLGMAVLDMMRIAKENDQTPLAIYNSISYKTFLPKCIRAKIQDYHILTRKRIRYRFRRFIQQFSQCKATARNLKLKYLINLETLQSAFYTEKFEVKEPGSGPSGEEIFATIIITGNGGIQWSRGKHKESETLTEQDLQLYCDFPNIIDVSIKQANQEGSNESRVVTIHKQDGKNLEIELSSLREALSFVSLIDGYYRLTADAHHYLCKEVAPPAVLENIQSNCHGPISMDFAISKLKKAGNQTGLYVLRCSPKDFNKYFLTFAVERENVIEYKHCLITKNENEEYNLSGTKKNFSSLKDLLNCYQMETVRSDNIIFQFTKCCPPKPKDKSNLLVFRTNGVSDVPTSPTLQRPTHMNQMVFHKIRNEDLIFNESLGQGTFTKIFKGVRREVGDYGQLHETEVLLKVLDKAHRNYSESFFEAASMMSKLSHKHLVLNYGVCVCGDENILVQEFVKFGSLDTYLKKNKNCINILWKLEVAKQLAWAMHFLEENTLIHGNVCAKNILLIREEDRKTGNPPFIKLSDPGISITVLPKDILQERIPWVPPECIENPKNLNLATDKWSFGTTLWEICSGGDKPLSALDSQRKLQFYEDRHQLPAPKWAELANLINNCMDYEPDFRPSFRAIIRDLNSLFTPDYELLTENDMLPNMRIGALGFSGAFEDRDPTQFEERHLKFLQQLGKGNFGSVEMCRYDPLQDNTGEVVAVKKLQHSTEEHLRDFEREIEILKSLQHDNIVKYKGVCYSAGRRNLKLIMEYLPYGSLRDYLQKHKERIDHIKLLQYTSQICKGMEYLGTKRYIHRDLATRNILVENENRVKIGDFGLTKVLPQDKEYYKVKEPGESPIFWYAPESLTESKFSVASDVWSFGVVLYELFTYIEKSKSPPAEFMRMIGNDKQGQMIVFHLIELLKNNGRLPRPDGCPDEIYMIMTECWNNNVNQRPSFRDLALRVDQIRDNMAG

MERTK = MERTK (UniProt Q12866); test: as above
Sequence of MERTK (Q12866 whole entry, looked up): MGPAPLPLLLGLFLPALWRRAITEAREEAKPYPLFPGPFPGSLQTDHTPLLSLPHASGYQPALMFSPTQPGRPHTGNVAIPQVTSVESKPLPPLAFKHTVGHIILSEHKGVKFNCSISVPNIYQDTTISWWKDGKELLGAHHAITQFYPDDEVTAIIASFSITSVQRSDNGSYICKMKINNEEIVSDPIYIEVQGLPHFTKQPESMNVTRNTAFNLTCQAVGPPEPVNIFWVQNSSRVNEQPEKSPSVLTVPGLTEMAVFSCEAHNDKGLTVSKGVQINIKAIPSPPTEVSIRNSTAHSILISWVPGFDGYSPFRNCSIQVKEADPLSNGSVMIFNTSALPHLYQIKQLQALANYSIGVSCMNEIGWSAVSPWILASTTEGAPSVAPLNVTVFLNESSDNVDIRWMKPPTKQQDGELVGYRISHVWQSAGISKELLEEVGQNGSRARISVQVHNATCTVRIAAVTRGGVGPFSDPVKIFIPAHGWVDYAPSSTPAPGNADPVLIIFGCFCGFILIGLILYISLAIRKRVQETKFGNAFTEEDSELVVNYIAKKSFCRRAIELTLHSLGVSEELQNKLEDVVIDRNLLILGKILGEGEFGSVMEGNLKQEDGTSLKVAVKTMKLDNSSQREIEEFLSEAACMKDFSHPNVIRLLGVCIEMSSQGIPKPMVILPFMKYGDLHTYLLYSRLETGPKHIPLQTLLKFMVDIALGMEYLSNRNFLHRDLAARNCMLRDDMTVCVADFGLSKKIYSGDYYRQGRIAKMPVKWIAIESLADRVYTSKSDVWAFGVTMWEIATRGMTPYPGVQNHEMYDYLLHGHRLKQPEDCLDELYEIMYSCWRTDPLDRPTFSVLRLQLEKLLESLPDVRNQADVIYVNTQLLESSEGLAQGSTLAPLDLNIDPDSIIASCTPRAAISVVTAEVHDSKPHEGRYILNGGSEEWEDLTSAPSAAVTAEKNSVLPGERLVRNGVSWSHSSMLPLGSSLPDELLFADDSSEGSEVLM

c-Abl (mouse) = test: as above
c-Src = test: as above
Grb2 SH2 = Grb2 SH2 (UniProt P62993); test: SH2 binding enrichment of the phosphorylated peptide, bacterial display (enrichment ratio); higher = better substrate or ligand; peptides without Tyr show the background
Sequence of Grb2 SH2 (P62993 whole entry, looked up): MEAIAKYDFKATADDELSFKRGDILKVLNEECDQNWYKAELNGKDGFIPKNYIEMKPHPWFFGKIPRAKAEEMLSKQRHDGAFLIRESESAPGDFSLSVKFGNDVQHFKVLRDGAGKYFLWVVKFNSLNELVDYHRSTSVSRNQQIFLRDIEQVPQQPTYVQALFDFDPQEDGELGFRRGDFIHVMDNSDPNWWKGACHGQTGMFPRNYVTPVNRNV

SHP2-C SH2 = test: as above
c-Src SH2 = test: as above
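For SH2 binding enrichment of the phosphorylated peptide, bacterial display in this document: peptide library displayed on the E. coli surface as eCPX fusions, selected cells deep-sequenced, score is each peptide's frequency after selection divided by its frequency in the input.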
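For phosphorylation enrichment, bacterial display in this document: 11-residue human phosphosite peptides and single-mutation variants displayed on the E. coli surface, counted by deep sequencing, each peptide's frequency after selection divided by its frequency in the unselected input library; frequency after pTyr selection over input frequency; kinase dosed for 20-30% of maximal phosphorylation in three min.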

Sequence of EPHB1 (P54762 whole entry, looked up): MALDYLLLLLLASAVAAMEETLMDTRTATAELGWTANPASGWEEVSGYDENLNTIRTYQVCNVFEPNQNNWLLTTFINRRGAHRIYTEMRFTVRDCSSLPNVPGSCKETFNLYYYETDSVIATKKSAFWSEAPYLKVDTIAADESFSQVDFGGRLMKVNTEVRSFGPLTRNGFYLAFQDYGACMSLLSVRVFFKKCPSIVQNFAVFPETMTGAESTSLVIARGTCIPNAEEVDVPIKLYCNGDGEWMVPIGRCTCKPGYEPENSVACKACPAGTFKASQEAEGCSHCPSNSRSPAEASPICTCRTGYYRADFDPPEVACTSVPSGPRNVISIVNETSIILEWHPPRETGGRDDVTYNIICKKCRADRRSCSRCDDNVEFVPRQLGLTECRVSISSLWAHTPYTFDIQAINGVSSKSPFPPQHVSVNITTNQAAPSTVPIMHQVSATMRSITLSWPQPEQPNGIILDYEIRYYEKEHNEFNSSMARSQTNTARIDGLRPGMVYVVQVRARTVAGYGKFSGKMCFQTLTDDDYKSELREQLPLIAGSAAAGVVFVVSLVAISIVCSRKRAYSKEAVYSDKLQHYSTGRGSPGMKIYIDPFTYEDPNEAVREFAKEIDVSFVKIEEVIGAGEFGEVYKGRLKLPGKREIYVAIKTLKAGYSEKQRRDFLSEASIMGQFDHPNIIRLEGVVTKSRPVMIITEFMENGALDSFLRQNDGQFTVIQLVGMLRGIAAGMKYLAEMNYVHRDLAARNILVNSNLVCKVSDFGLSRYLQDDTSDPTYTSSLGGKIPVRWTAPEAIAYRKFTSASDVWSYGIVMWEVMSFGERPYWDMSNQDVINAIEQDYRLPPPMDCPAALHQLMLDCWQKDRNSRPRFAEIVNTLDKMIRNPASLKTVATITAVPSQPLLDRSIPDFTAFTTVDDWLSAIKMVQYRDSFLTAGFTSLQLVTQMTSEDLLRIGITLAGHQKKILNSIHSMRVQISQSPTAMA
Sequence of EPHB2 (P29323 whole entry, looked up): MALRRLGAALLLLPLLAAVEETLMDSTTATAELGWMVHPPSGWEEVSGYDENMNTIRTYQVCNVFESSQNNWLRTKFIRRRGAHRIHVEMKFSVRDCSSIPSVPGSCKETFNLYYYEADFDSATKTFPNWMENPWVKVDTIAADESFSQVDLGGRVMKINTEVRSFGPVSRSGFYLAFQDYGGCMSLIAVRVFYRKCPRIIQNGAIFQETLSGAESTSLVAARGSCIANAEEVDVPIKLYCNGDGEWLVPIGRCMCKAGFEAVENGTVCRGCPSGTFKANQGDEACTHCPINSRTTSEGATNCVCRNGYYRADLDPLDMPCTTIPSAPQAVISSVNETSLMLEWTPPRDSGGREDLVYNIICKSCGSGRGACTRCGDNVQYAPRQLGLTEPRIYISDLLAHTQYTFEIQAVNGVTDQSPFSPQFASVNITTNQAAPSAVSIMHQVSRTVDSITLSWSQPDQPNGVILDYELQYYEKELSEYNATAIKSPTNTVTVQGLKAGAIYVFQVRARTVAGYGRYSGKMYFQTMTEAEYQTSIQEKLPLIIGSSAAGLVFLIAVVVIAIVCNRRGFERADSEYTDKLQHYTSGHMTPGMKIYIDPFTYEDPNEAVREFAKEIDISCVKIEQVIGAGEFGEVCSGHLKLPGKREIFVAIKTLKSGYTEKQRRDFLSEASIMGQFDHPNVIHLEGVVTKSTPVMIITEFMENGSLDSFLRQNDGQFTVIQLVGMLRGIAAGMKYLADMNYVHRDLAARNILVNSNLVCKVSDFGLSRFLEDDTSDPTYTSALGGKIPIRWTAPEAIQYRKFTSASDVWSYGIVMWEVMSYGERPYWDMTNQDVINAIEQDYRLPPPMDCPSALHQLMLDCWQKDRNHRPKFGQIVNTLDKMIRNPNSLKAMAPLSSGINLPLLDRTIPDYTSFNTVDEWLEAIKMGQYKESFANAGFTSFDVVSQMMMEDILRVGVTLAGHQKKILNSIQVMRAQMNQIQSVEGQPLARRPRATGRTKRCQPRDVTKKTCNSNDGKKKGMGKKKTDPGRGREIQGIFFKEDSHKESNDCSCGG

| Sequence | phosphorylation enrichment (AncSZ) | phosphorylation enrichment (EPHB1) | phosphorylation enrichment (EPHB2) | phosphorylation enrichment (FGFR1) | phosphorylation enrichment (FGFR3) | phosphorylation enrichment (Fer (mouse)) | phosphorylation enrichment (Fes) | phosphorylation enrichment (Fyn) | phosphorylation enrichment (Hck) | phosphorylation enrichment (Jak2) | phosphorylation enrichment (MERTK) | phosphorylation enrichment (c-Abl (mouse)) | phosphorylation enrichment (c-Src) | SH2 binding enrichment (Grb2 SH2) | SH2 binding enrichment (SHP2-C SH2) | SH2 binding enrichment (c-Src SH2) |
| --- | --- | --- | --- | --- | --- | --- | --- | --- | --- | --- | --- | --- | --- | --- | --- | --- |
| APIEDYGGGGG [B4GALT6_Y382] | 0.872 | 0.649 | 0.599 | 0.523 | 0.697 | 0.505 | 0.965 | 0.566 | 0.509 | 0.794 | 0.461 | 0.661 | 0.449 | 0.702 | 0.627 | 0.501 |
| APQYTYAQGGQ [FLNA_Y1763] | 0.72 | 0.373 | 0.43 | 0.453 | 0.53 | 0.409 | 0.643 | 0.486 | 0.509 | 0.54 | 0.486 | 0.54 | 0.455 | 0.778 | 1.26 | 2.62 |
| AQADIYKADFQ [IKBKG_Y308] | 0.856 | 0.465 | 0.535 | 0.44 | 0.722 | 0.354 | 0.848 | 0.734 | 0.78 | 0.672 | 0.399 | 0.675 | 0.925 | 0.836 | 0.647 | 0.421 |
| AQAERYDDMAA [YWHAG_Y20_E15A] | 0.871 | 0.577 | 0.595 | 0.469 | 0.67 | 0.529 | 0.881 | 0.478 | 0.476 | 0.954 | 0.389 | 0.668 | 0.439 | 0.858 | 0.699 | 2.79 |
| AQQPIYVRVEG [NLRP7_Y318] | 0.967 | 5.88 | 4.96 | 1.12 | 0.787 | 0.707 | 0.963 | 2.18 | 1.74 | 0.965 | 2.46 | 1.54 | 3.6 | 0.84 | 0.682 | 0.609 |
| ARGMEYLASQK [FGFR2_Y616] | 0.576 | 0.376 | 0.461 | 0.443 | 0.433 | 0.37 | 0.657 | 0.534 | 0.385 | 0.563 | 0.394 | 0.669 | 0.398 | 0.763 | 0.755 | 0.369 |
| ARMTNCGLPRY [TSPAN12_Y138_Y138C] | 0.588 | 0.487 | 0.365 | 0.446 | 0.487 | 0.335 | 0.602 | 0.394 | 0.453 | 0.519 | 0.354 | 0.575 | 0.456 | 1.25 | 1 | 0.845 |
| ARMTNYGLPRY [TSPAN12_Y138] | 0.576 | 0.463 | 0.588 | 0.495 | 0.441 | 0.576 | 0.739 | 0.619 | 0.554 | 0.606 | 0.497 | 0.66 | 0.534 | 1 | 0.761 | 0.5 |
| ARVDTYCRHNF [HLA-DRB1_Y107_A103R_YF] | 0.7 | 0.41 | 0.494 | 0.443 | 0.53 | 0.433 | 0.992 | 0.439 | 0.45 | 0.731 | 0.486 | 0.677 | 0.496 | 1.01 | 0.743 | 0.757 |
| ASFSLYEPAKM [MKI67_Y340_P338S] | 1.27 | 6.24 | 5.28 | 0.518 | 0.563 | 9.33 | 1.28 | 1.27 | 3.48 | 0.954 | 0.769 | 0.825 | 1.25 | 1 | 0.793 | 0.613 |
| ASNFNYFYHRE [KCNA1_Y413_V408A] | 0.95 | 0.582 | 0.65 | 1.1 | 0.956 | 0.455 | 0.964 | 0.504 | 0.428 | 0.732 | 0.398 | 0.476 | 0.497 | 0.695 | 1.02 | 0.697 |
| ASTHVYQIMNH [ITK_Y588] | 0.703 | 0.991 | 0.487 | 0.508 | 0.423 | 1.34 | 0.722 | 1.39 | 2 | 0.55 | 1.61 | 0.623 | 2.58 | 0.73 | 0.833 | 14.3 |
| ATVRPYRPYII [LRP5_Y1528_A1525V] | 0.777 | 0.499 | 0.552 | 0.53 | 0.591 | 0.462 | 0.715 | 0.518 | 0.43 | 0.564 | 0.484 | 0.677 | 0.586 | 0.765 | 0.657 | 0.482 |
| AVRYIYTIDGS [DCX_Y105_G100A] | 0.948 | 0.65 | 0.552 | 0.579 | 0.709 | 0.439 | 1.2 | 3.86 | 1.41 | 0.972 | 0.629 | 0.727 | 3.18 | 0.979 | 20.1 | 0.76 |
| CCKNRYDKDKP [THAP1_Y14_G9C] | 0.455 | 0.29 | 0.28 | 0.465 | 0.419 | 0.345 | 0.5 | 0.33 | 0.384 | 0.429 | 0.486 | 0.381 | 0.345 | 1.01 | 0.686 | 0.542 |
| CDIARYIVSQL [MAST2_Y461_P459A] | 0.919 | 0.594 | 0.542 | 0.553 | 0.733 | 0.505 | 1.12 | 0.447 | 0.559 | 0.827 | 0.43 | 0.667 | 0.478 | 0.866 | 0.793 | 0.578 |
| CDTKLYTSVPN [DNTTIP2_Y427_A430V] | 0.96 | 1.11 | 0.77 | 0.62 | 0.797 | 1.27 | 1.12 | 0.655 | 1.01 | 0.842 | 1.5 | 0.755 | 0.849 | 0.728 | 0.48 | 1.22 |

| Sequence | phosphorylation enrichment (AncSZ) | phosphorylation enrichment (EPHB1) | phosphorylation enrichment (EPHB2) | phosphorylation enrichment (FGFR1) | phosphorylation enrichment (FGFR3) | phosphorylation enrichment (Fer (mouse)) | phosphorylation enrichment (Fes) | phosphorylation enrichment (Fyn) | phosphorylation enrichment (Hck) | phosphorylation enrichment (Jak2) | phosphorylation enrichment (MERTK) | phosphorylation enrichment (c-Abl (mouse)) | phosphorylation enrichment (c-Src) | SH2 binding enrichment (Grb2 SH2) | SH2 binding enrichment (SHP2-C SH2) | SH2 binding enrichment (c-Src SH2) |
| --- | --- | --- | --- | --- | --- | --- | --- | --- | --- | --- | --- | --- | --- | --- | --- | --- |
| CEAMEYLESKQ [BTK_Y511] | 1.94 | 0.882 | 0.811 | 0.655 | 1.01 | 0.788 | 1.95 | 0.557 | 0.751 | 1.89 | 0.688 | 1.36 | 0.839 | 0.676 | 0.553 | 0.402 |
| CEDMEYLESKQ [BTK_Y511_A508D] | 1.3 | 0.652 | 0.783 | 0.476 | 0.734 | 0.652 | 1.35 | 0.494 | 0.643 | 1.22 | 0.497 | 0.828 | 0.53 | 0.805 | 0.622 | 0.454 |
| CEHRGFLYLAI [TEK_Y897_Y897F] | 0.971 | 0.464 | 0.466 | 0.419 | 0.698 | 0.545 | 1.16 | 0.372 | 0.453 | 0.801 | 0.442 | 0.947 | 0.564 | 1.47 | 1.14 | 0.883 |
| CIILLYIFLKN [STXBP1_Y411_R406C] | 0.676 | 0.441 | 0.275 | 0.392 | 0.531 | 0.406 | 0.693 | 0.378 | 0.465 | 0.553 | 0.363 | 0.492 | 0.37 | 2.18 | 1.74 | 1.49 |
| CKQGKYLNWDA [ATM_Y54_S49C] | 0.921 | 0.552 | 0.494 | 0.447 | 0.632 | 0.397 | 0.839 | 0.418 | 0.423 | 0.782 | 0.39 | 0.605 | 0.366 | 5.58 | 1.24 | 0.735 |
| CLMILHRLKER [PTPRR_Y249_Y249H] | 1.05 | 0.496 | 0.569 | 0.436 | 0.575 | 0.516 | 1.19 | 0.464 | 0.426 | 1.03 | 0.437 | 0.548 | 0.395 | 1.04 | 1.35 | 0.799 |
| CLMILYRLKER [PTPRR_Y249] | 1.26 | 0.444 | 0.603 | 0.509 | 0.809 | 0.501 | 1.23 | 0.5 | 0.494 | 0.997 | 0.364 | 0.576 | 0.388 | 1.25 | 1.22 | 0.901 |
| CNNFIYGGCRG [SPINT2_Y163] | 0.543 | 0.361 | 0.404 | 0.455 | 0.382 | 0.371 | 0.699 | 3.89 | 3.35 | 0.591 | 0.391 | 0.442 | 5.21 | 1.28 | 0.984 | 1.24 |
| CPASVYTKRCS [CPT2_Y508_R503C] | 0.598 | 0.349 | 0.403 | 0.447 | 0.441 | 0.354 | 0.549 | 0.434 | 0.392 | 0.518 | 0.447 | 0.442 | 0.431 | 0.982 | 0.765 | 0.584 |
| CPSLPYSPVSS [CAMKK2_Y128] | 0.813 | 0.491 | 0.607 | 0.588 | 0.7 | 3.14 | 0.847 | 0.545 | 0.497 | 0.905 | 0.527 | 0.654 | 0.787 | 0.978 | 0.855 | 0.712 |
| CRERPYGGGGG [FUS_Y526_R521C] | 0.631 | 0.552 | 0.406 | 0.556 | 0.468 | 0.647 | 1.13 | 0.389 | 0.481 | 0.587 | 0.438 | 0.459 | 0.377 | 0.87 | 0.593 | 0.651 |
| CRPPYYHRNCM [HGD_Y334_F329C] | 0.837 | 0.436 | 0.556 | 0.617 | 0.628 | 0.458 | 0.856 | 0.565 | 0.761 | 0.992 | 0.515 | 0.743 | 0.452 | 1.78 | 1.25 | 1.65 |
| CSEETYRLMLQ [RET_Y981_M980T] | 1.28 | 0.65 | 0.611 | 0.741 | 1.06 | 0.703 | 1.29 | 0.586 | 0.576 | 1.03 | 0.451 | 0.81 | 0.627 | 0.643 | 0.553 | 0.467 |
| CSHKFYGKQCC [ADAMTS16_Y1211] | 0.607 | 0.498 | 0.477 | 0.391 | 0.499 | 0.448 | 0.673 | 0.346 | 0.415 | 0.513 | 0.396 | 0.505 | 0.268 | 1.04 | 1.01 | 0.765 |
| CSRCFYQLTKL [AR_Y858_R856C] | 0.864 | 0.45 | 0.459 | 0.601 | 0.587 | 1.85 | 0.904 | 0.429 | 0.362 | 0.728 | 0.55 | 0.564 | 1.14 | 1.24 | 1.52 | 1.18 |
| CTHDLYMIMRE [FGFR3_Y724] | 1.31 | 2.05 | 1.03 | 0.634 | 0.837 | 0.667 | 1.46 | 0.564 | 0.971 | 1.44 | 1.18 | 0.848 | 2.22 | 0.811 | 0.708 | 0.573 |
